US20240239878A1 (SHANGHAI QILU PHARMACEUTICAL RESEARCH AND DEVELOPMENT CENTRE, published 2024)
Residue numbers refer to the chain shown, from its start.

T1: human DLL3 on SHP-77 cells (human, UniProt Q9NYJ7 27-618)
T1 construct: also called DLL3-expressing cells (SHP-77)
T1 sequence: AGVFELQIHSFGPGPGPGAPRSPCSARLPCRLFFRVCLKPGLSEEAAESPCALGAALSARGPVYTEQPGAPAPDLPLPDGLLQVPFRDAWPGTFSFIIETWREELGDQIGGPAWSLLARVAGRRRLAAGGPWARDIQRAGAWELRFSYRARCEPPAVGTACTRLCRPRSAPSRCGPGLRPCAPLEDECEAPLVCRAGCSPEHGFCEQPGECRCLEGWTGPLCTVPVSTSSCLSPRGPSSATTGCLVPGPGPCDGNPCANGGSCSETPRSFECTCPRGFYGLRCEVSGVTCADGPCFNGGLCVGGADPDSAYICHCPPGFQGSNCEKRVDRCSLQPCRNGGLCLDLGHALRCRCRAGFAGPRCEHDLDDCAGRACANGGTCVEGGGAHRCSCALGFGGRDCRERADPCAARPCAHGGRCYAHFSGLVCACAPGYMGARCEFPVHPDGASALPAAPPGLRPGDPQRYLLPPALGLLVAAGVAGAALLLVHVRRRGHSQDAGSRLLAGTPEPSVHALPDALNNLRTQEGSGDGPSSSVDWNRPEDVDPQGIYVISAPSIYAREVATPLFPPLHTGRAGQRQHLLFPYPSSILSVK

T2: Cynomolgus monkey DLL3 on HEK293 cells (HEK293-cyno DLL3) (Cynomolgus monkey, UniProt Q9NYJ7 27-618 (human entry))
T2 chain: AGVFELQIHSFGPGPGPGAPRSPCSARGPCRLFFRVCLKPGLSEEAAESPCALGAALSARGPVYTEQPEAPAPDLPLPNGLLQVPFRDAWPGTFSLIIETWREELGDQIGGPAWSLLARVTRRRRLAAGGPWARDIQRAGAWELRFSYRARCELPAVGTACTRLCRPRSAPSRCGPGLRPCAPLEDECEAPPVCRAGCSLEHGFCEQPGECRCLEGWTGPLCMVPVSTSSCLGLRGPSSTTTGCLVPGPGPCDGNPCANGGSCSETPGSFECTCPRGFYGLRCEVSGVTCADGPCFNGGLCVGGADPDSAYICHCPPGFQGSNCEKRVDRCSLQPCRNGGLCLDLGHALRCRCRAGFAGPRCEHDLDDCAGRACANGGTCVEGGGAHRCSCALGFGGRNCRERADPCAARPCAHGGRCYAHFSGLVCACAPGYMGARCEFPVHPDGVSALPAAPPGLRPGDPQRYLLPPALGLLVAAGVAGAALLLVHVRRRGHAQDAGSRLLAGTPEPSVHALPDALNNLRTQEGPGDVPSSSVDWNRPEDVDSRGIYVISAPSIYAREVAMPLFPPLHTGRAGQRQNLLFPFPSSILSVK

B1: 26C4D2 mouse hybridoma-derived anti-DLL3 chimeric antibody (antibody, V domains shown)
VH: QVQLQQPGAELVKPGASVKLSCKASGYSFTSYWMHWVKQRPGQGLEWIGMIHPTLGDTNYNEKFKSKATLTVDKSSSTAYMELSSLTSEDSAVYYCARLGSLSMMDYWGQGTSVTVSS
VL: DIQMTQTTSSLSASLGDRVTISCSASQGISNYLNWYQQKPDGTVKLLIYYTSSLHSGVPARFSGSGSGTDYSLTISNLEPEDIAIYYCQQYSKFPYTFGGGTKLEIK
B2: 48B6D7 mouse hybridoma-derived anti-DLL3 chimeric antibody (antibody, V domains shown)
VH: QVQLQQPGAELVKPGTSVKLSCEASGYTFSNYWMQWVRQRPGQGLEWIGMILPNSDITNYNENFQTKATLTVDKSSSTAYMQLSSLTSEDSAVYYCARQARYSAMDYWGQGTSVTVSS
VL: B1 VL with A13V, S22N, S53N, A60S, I85T, Q90H
B3: 46A5A4 mouse hybridoma-derived anti-DLL3 chimeric antibody (antibody, V domains shown)
VH: QVQLQQSDAELVKPGASVKISCKVSGYTFTDHTIHWMKQRPEQGLEWIGYIYPRDGYTMYNEKFKGKATLTADKSSSTAYMQLNSLTSEDSAVHFCARAFHALDYWGQGTSVTVSS
VL: B1 VL with I21F, S22T, V44I, A60S, I85T, F94L
B4: 39E2D11-1 mouse hybridoma-derived anti-DLL3 chimeric antibody (antibody, V domains shown)
VH: QVQLQQSGAELVKPGASVKMSCKASGYTFISYWITWVKQRPGQGLEWIGDIYPGSGSTTNYNEKFKSKATLTVDTSSSTAYMQLSSLTSEDSAVYYCARETTVGGAYAMDYWGQGTSVTVSS
VL: DIVLTQSPATLSVTPGDSVSLSCRASQSINNNLHWYQQKSHESPRLLIKYVSQSISGIPSRFSGSGSGTDFTLTINSVETEDFGMYFCQQTNSWPLTFGAGTKLELK
B5: 45E4D7 mouse hybridoma-derived anti-DLL3 chimeric antibody (antibody, V domains shown)
VH: QVQLQQPGAELVKPGTSVKLSCKASGYTFTSHWITWVKQRPGQGLEWIGDIYPISGSTNNNEKFRNKATLTVDTSSSTAYMQLSSLTSEDSAVYFCAKIITVGGAYVMDYWGQGTSVTVSS
VL: B4 VL with A9V, I29V, N30R, T74S, M85V, T91S
B6: 27E10C5 mouse hybridoma-derived anti-DLL3 chimeric antibody (antibody, V domains shown)
VH: QVQLQQSGAELVKPGASVKISCKASGYAFSSQWMNWVKQRPGKGLEWIGQIYPGNGDTNYNGKFKGKATLTADKSSSTAYIQLSSLTSEDSAVYFCARWFAYWGQGTLVTVSA
VL: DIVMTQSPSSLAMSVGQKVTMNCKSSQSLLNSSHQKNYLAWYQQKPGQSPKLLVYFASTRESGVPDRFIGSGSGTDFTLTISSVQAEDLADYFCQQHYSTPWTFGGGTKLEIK

target: T1, human DLL3 on SHP-77 cells; test: flow cytometry, SHP-77 cells
Protocol: (§1) SHP-77 and HEK293-cyno DLL3 cells were cultured. The culture medium for SHP-77 cells were RPMI1640+10% FBS, and the culture medium for HEK293 cyno DLL3 cells was DMEM+10% FBS+200 μg/ml Hygromycin. The cells were cultured in a T75 cell culture flask at a 37° C. 5% CO₂ incubator. When using cells, they are washed with sterile DPBS, digested with 0.25% trypsin EDTA for about 5 minutes, and then stopped with a complete medium.
(§2) The digested cells were centrifuged at 1000 rpm for 5 min at room temperature. The supernatant was discarded and the cells were resuspended in 100 μL of 1% BSA (in PBS). The cells were counted and adjusted to a cell density of 1E6/m. The dilute cells were seeded in a 96-well round-bottom culture plate (corning 3799), and centrifuged at 1500 rpm for 5 min at 4° C. The supernatant was discarded and the cells were stored at 4° C. until use. Antibody samples to be tested were diluted with 1% BSA (in PBS) at a starting concentration of 100 nM, downwards by a 10-fold gradient for 7 concentrations. The cells were resuspended with the diluted antibody at 100 μL/well and incubated for 1 hour at 4° C. The cells were centrifuged at 1500 rpm for 5 minutes at 4° C. and the supernatant was discarded. The cells were resuspended and washed with 160 μL of 1% BSA (in PBS), centrifuged at 1500 rpm for 5 minutes at 4° C. The supernatant was discarded. The secondary antibody (goat anti human IgG Fc PE) was diluted 1:200 with 1% BSA (in PBS) according to the manufacturer's instructions and the cells were resuspended with the diluted secondary antibody. 100 µL/well, and incubated for 0.5 h at 4° C. The cells were centrifuged at 1500 rpm for 5 minutes at 4° C. and the supernatant was discarded. The cells were resuspended and washed with 160 μL of 1% BSA (in PBS), centrifuged at 1500 rpm for 5 minutes at 4° C. The supernatant was discarded. The cells were resuspended in 100 μL of 1% BSA (in PBS), and filtered across a 300 mesh gauze. The mean fluorescence intensity of the PE channels was measured by flow cytometry.
(§3) The analyzed mean fluorescence intensity was imported into Graphpad to analyze the median-binding concentration (hereinafter referred to as EC50) of antibody and cell and the top mean fluorescence intensity (Top MFI).

EC50 [nM] | Top MFI [MFI] | Binder
0.6 | 1050 | B1
0.65 | 990 | B2
1.18 | 1010 | B3
0.85 | 999 | B4
0.68 | 965 | B5
1.2 | 813 | B6

target: T1, human DLL3 on SHP-77 cells; test: flow cytometry, SHP-77 cells; remark: another data set of the same source
Protocol: SHP-77 cells were cultured. The culture medium for SHP-77 cells was RPMI1640+10% FBS. The cells were cultured in a T75 cell culture flask at a 37° C. 5% CO₂ incubator. When using cells, they are washed with sterile DPBS, digested with 0.25% trypsin EDTA for about 5 minutes, and then stopped with a complete medium.
as §2, with “plated” for “seeded”, “antibody,” for “antibody.”
as §3

EC50 [nM] | Top MFI [MFI] | Binder
1.2 | 1570 | B3
1.49 | 1650 | B4
0.894 | 1560 | B5

Target: T2, Cynomolgus monkey DLL3 on HEK293 cells …
Test: flow cytometry, HEK293-cyno DLL3 cells
Protocol: as §1, §2, §3

EC50 [nM] | Top MFI [MFI] | Binder
0.43 | 421 | B1
0.53 | 480 | B2
0.67 | 475 | B3
1.03 | 445 | B4
0.71 | 454 | B5
1.39 | 396 | B6
